This is an account of results in the supplement of paper PMC10567573.

B1: SPDEF (parent)
chain: FQELAGKELCAMSEEQFRQRSPLG
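Further: lentivirally expressed fusions sorted by FACS into six bins by GFP to DsRed ratio, PSI derived from sequencing read proportions per bin multiplied by bin number.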

The series covers variants of B1. In words: protein stability index of a GFP-peptide fusion (GPS, HEK-293T) (PSI 1-6); higher = more stable. The note with it: c terminus: a fixed tail appended.
As to FQELAGKELCKMSEEQFRQRSPLG [A11K], the protein stability index was 2.61.
The value for FQELAGKELCLMSEEQFRQRSPLG [A11L] was 2.23.
For FQELAGKELCMMSEEQFRQRSPLG [A11M], the protein stability index came out at 2.35.
With FQELAGKELCDMSEEQFRQRSPLG [A11D], the protein stability index was determined as 4.66.
With FQELAGKELCVMSEEQFRQRSPLG [A11V], the protein stability index worked out at 1.94.
With FQELAGKELCHMSEEQFRQRSPLG [A11H] the figure was 3.35; with FQELAGKELCPMSEEQFRQRSPLG [A11P], 3.56.
The value for FQELAGKELCEMSEEQFRQRSPLG [A11E] was 3.49.
On to FQELAGKELCWMSEEQFRQRSPLG [A11W], for which the protein stability index was 2.83.
Regarding FQELAGKELCFMSEEQFRQRSPLG [A11F], the protein stability index is 2.5.
The value for FQELAGKELCTMSEEQFRQRSPLG [A11T] was 2.31; that for FQELAGKELCNMSEEQFRQRSPLG [A11N] was 2.91.
The value for FQELAGKELCIMSEEQFRQRSPLG [A11I] was 1.87; that for FQELAGKELCRMSEEQFRQRSPLG [A11R] was 2.52; that for FQELAGKELCCMSEEQFRQRSPLG [A11C] was 1.83.
Regarding FQELAGKELCYMSEEQFRQRSPLG [A11Y], the protein stability index stood at 2.67.
With FQELAGKELCQMSEEQFRQRSPLG [A11Q], the protein stability index was determined as 3.55.
With FQELAGKELCGMSEEQFRQRSPLG [A11G] the figure was 2.94; with FQELAGKELCSMSEEQFRQRSPLG [A11S], 2.31.
In the case of FQELAGKELCAMSEEPFRQRSPLG [Q16P], the protein stability index stood at 2.47.
As for FQELAGKELCAMSEECFRQRSPLG [Q16C], the protein stability index turned out to be 2.86.
The value for FQELAGKELCAMSEEYFRQRSPLG [Q16Y] was 2.16.
The value for FQELAGKELCAMSEETFRQRSPLG [Q16T] was 2.65; that for FQELAGKELCAMSEEIFRQRSPLG [Q16I] was 2.49.
Take FQELAGKELCAMSEEGFRQRSPLG [Q16G]: the protein stability index is 2.74.
With FQELAGKELCAMSEEMFRQRSPLG [Q16M] the figure was 2.23; with FQELAGKELCAMSEEDFRQRSPLG [Q16D], 3.23; with FQELAGKELCAMSEEEFRQRSPLG [Q16E], 3.06.
The value for FQELAGKELCAMSEESFRQRSPLG [Q16S] was 2.56; that for FQELAGKELCAMSEEWFRQRSPLG [Q16W] was 1.92.
With FQELAGKELCAMSEENFRQRSPLG [Q16N] the figure was 2.74.
In the case of FQELAGKELCAMSEELFRQRSPLG [Q16L], the protein stability index was found to be 2.2.
For the variant FQELAGKELCAMSEEAFRQRSPLG [Q16A], the protein stability index was 3.12.
With FQELAGKELCAMSEEVFRQRSPLG [Q16V] the figure was 2.28; with FQELAGKELCAMSEEHFRQRSPLG [Q16H], 2.43.
With FQELAGKELCAMSEEFFRQRSPLG [Q16F] the figure was 2.13.
The value for FQELAGKELCAMSEEKFRQRSPLG [Q16K] was 2.28; that for FQELAGKELCAMSEERFRQRSPLG [Q16R] was 2.6; that for FQELAGKELCAISEEQFRQRSPLG [M12I] was 2.46.
Regarding FQELAGKELCATSEEQFRQRSPLG [M12T], the protein stability index turned out to be 3.4.
With FQELAGKELCAESEEQFRQRSPLG [M12E] the figure was 4.28.
With FQELAGKELCACSEEQFRQRSPLG [M12C], the protein stability index was determined as 2.39.
FQELAGKELCALSEEQFRQRSPLG [M12L]: the protein stability index turned out to be 2.72.
The value for FQELAGKELCAWSEEQFRQRSPLG [M12W] was 1.79; that for FQELAGKELCAPSEEQFRQRSPLG [M12P] was 2.38.
The value for FQELAGKELCAYSEEQFRQRSPLG [M12Y] was 2.88; that for FQELAGKELCAVSEEQFRQRSPLG [M12V] was 2.83.
With FQELAGKELCAQSEEQFRQRSPLG [M12Q] the figure was 3.19; with FQELAGKELCANSEEQFRQRSPLG [M12N], 3.3.
In the case of FQELAGKELCADSEEQFRQRSPLG [M12D], the protein stability index amounted to 3.83.
Consider FQELAGKELCAASEEQFRQRSPLG [M12A], for which the protein stability index worked out at 3.57.
Take FQELAGKELCAKSEEQFRQRSPLG [M12K]: the protein stability index turned out to be 3.3.
With FQELAGKELCARSEEQFRQRSPLG [M12R] the figure was 3.34; with FQELAGKELCAGSEEQFRQRSPLG [M12G], 3.04.
The value for FQELAGKELCASSEEQFRQRSPLG [M12S] was 3.75; that for FQELAGKELCAFSEEQFRQRSPLG [M12F] was 2.47.
The value for FQELAGKELCAHSEEQFRQRSPLG [M12H] was 2.9; that for FQELAGKELCAMSEYQFRQRSPLG [E15Y] was 2.04; that for FQELAGKELCAMSEIQFRQRSPLG [E15I] was 2.04.
Regarding FQELAGKELCAMSEDQFRQRSPLG [E15D], the protein stability index was found to be 2.74.
The value for FQELAGKELCAMSEPQFRQRSPLG [E15P] was 2.41; that for FQELAGKELCAMSEAQFRQRSPLG [E15A] was 3.05; that for FQELAGKELCAMSECQFRQRSPLG [E15C] was 2.19.
The value for FQELAGKELCAMSEWQFRQRSPLG [E15W] was 2.56.
With FQELAGKELCAMSEVQFRQRSPLG [E15V] the figure was 1.93; with FQELAGKELCAMSEKQFRQRSPLG [E15K], 2.24; with FQELAGKELCAMSEMQFRQRSPLG [E15M], 2.19.
For the variant FQELAGKELCAMSELQFRQRSPLG [E15L], the protein stability index came to 2.32.
Take FQELAGKELCAMSERQFRQRSPLG [E15R]: the protein stability index was determined as 2.5.
Turning to FQELAGKELCAMSEQQFRQRSPLG [E15Q], the protein stability index came out at 2.71.
With FQELAGKELCAMSENQFRQRSPLG [E15N] the figure was 2.13; with FQELAGKELCAMSETQFRQRSPLG [E15T], 2.38; with FQELAGKELCAMSEFQFRQRSPLG [E15F], 1.98.
The value for FQELAGKELCAMSEHQFRQRSPLG [E15H] was 2.01; that for FQELAGKELCAMSESQFRQRSPLG [E15S] was 2.21; that for FQELAGKELCAMSEGQFRQRSPLG [E15G] was 2.3.
The value for FQELAGKELCAMSCEQFRQRSPLG [E14C] was 2.46; that for FQELAGKELCAMSMEQFRQRSPLG [E14M] was 2.03; that for FQELAGKELCAMSFEQFRQRSPLG [E14F] was 2.22.
As to FQELAGKELCAMSKEQFRQRSPLG [E14K], the protein stability index stood at 2.15.
With FQELAGKELCAMSNEQFRQRSPLG [E14N] the figure was 2.81; with FQELAGKELCAMSIEQFRQRSPLG [E14I], 1.8.
With FQELAGKELCAMSDEQFRQRSPLG [E14D] the figure was 2.89.
With FQELAGKELCAMSSEQFRQRSPLG [E14S] the figure was 2.3.
Regarding FQELAGKELCAMSQEQFRQRSPLG [E14Q], the protein stability index worked out at 2.63.
For FQELAGKELCAMSAEQFRQRSPLG [E14A], the protein stability index amounted to 2.28.
For FQELAGKELCAMSHEQFRQRSPLG [E14H], the protein stability index was determined as 2.47.
In the case of FQELAGKELCAMSPEQFRQRSPLG [E14P], the protein stability index worked out at 2.38.
The value for FQELAGKELCAMSLEQFRQRSPLG [E14L] was 2.3; that for FQELAGKELCAMSVEQFRQRSPLG [E14V] was 2.07.
As for FQELAGKELCAMSGEQFRQRSPLG [E14G], the protein stability index amounted to 2.21.
As to FQELAGKELCAMSTEQFRQRSPLG [E14T], the protein stability index was 1.89.
FQELAGKELCAMSYEQFRQRSPLG [E14Y]: the protein stability index was 2.49.
On to FQELAGKELCAMSREQFRQRSPLG [E14R], for which the protein stability index amounted to 2.52.
